Laboratory results published in patent EP4810607A2.

Legend:
[1] = target: human IL-11 (native, secreted by human fibroblasts in culture) (human) (UniProt P20809); assay: cell-based or functional assay
[2] = target: mouse IL-11 (endogenous, produced by mouse fibroblasts in culture) (mouse) (UniProt P47873); assay: cell-based or functional assay
Chain of UniProt P47873 (P47873 22-199 limits assumed): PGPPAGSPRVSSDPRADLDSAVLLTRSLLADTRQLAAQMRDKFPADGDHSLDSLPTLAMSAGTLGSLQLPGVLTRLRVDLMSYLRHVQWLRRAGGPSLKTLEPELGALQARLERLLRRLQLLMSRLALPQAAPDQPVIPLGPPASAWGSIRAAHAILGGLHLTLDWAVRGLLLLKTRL

Chain of UniProt P20809 (P20809 22-199): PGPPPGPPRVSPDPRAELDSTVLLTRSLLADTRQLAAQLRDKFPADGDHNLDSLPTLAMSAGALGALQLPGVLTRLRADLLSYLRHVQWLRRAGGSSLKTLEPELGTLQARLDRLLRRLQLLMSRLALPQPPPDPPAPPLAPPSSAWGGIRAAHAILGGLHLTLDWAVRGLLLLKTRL

- percentage of activated fibroblasts normalised to non-stimulated cultures, TGFβ1-stimulated human atrial fibroblasts (fold of non-stimulated) [1]: 0.99
- percentage of activated fibroblasts relative to unstimulated cultures, TGFβ1-stimulated human atrial fibroblasts [1]: 0.89 fold
- percentage of activated fibroblasts, TGFβ1-stimulated human atrial fibroblasts [1]: 28.3%
- percentage of activated fibroblasts normalised to non-stimulated cultures, TGFβ1-stimulated mouse dermal fibroblasts (fold of non-stimulated) [2]: 1.24
- percentage of activated fibroblasts relative to unstimulated cultures, TGFβ1-stimulated mouse atrial fibroblasts [2]: 1.44 fold
- percentage of activated fibroblasts, TGFβ1-stimulated mouse dermal fibroblasts [2]: 39.4%
Substance: neutralising anti-human IL-11 monoclonal antibody (Monoclonal Mouse IgG2A; Clone #22626; Catalog No. MAB218; R&D Systems, MN, USA)
